According to paper PMC10304477:

Key:
[1] = biological target: extracellular domain of the S protein of SARS-CoV-2 Omicron BA.1 (BA.1-S) (SARS-CoV-2 Omicron BA.1); assay: cryo-EM structure
[2] = biological target: extracellular domain of the S protein of SARS-CoV-2 Omicron BA.3 (BA.3-S) (SARS-CoV-2 Omicron BA.3); assay: cryo-EM structure

“peptidase domain (PD) of human ACE2 (from UniProt Q9BYF1 19-615) (domain or fragment)” gave a stoichiometry N (ACE2-PD per S trimer) [1] of 2.

Work on “extracellular domain of the S protein of SARS-CoV-2 Omicron BA.1 (BA.1-S) (domain or fragment)” yielded a stoichiometry N [1] of 3.

In the case of “extracellular domain of the S protein of SARS-CoV-2 Omicron BA.3 (BA.3-S) (domain or fragment)”, the stoichiometry N [2] is reported as 3.
